Measured values published in the Immune Epitope Database (IEDB).

What was measured:
HLA-B*57:01 [1] = assay: IEDB peptide-MHC binding, purified MHC/competitive/radioactivity; filed as Kd, often an IC50 or EC50 that approximates it; ≥ and ≤ were set here for values at or beyond the usual limits of such assays
HLA-A*02:01 [2] = assay: IEDB peptide-MHC binding, purified MHC/competitive/fluorescence; ≥ and ≤ were set here for values at or beyond the usual limits of such assays
HLA-A*24:02 = assay: as above
HLA-B*15:01 [3] = assay: as above
HLA-A*02:01 [4] = assay: IEDB peptide-MHC binding, purified MHC/direct/fluorescence; filed as Kd, often an IC50 or EC50 that approximates it; ≥ and ≤ were set here for values at or beyond the usual limits of such assays; conditions: source organism: Reston ebolavirus
HLA-A*03:01 [5] = assay: as above
HLA-C*03:03 = assay: as above
HLA-A*26:01 [6] = assay: IEDB peptide-MHC binding, purified MHC/competitive/fluorescence; filed as Kd, often an IC50 or EC50 that approximates it; ≥ and ≤ were set here for values at or beyond the usual limits of such assays
HLA-B*18:01 [7] = assay: as above
HLA-B*27:03 = assay: as above
HLA-B*46:01 [8] = assay: as above
HLA-B*57:01 [9] = assay: as above
HLA-B*07:02 = assay: IEDB peptide-MHC binding, purified MHC/competitive/fluorescence; ≥ and ≤ were set here for values at or beyond the usual limits of such assays
HLA-A*02:01 [10] = assay: IEDB peptide-MHC binding, purified MHC/competitive/fluorescence; filed as Kd, often an IC50 or EC50 that approximates it; ≥ and ≤ were set here for values at or beyond the usual limits of such assays
HLA-A*02:03 = assay: as above; conditions: source organism: Salmonella enterica subsp. enterica serovar Typhi
HLA-A*02:11 = assay: as above; conditions: source organism: Salmonella enterica subsp. enterica serovar Typhi
HLA-A*02:12 = assay: as above; conditions: source organism: Salmonella enterica subsp. enterica serovar Typhi
HLA-A*02:19 = assay: as above; conditions: source organism: Salmonella enterica subsp. enterica serovar Typhi
HLA-A*03:01 [11] = assay: as above; conditions: source organism: Salmonella enterica subsp. enterica serovar Typhi
HLA-A*29:02 [12] = assay: as above; conditions: source organism: Salmonella enterica subsp. enterica serovar Typhi
HLA-B*15:01 [13] = assay: as above
HLA-B*39:01 = assay: as above; conditions: source organism: Salmonella enterica subsp. enterica serovar Typhi
HLA-B*51:01 = assay: as above; conditions: source organism: Salmonella enterica subsp. enterica serovar Typhi
HLA-A*03:01 [14] = assay: IEDB peptide-MHC binding, purified MHC/competitive/fluorescence; ≥ and ≤ were set here for values at or beyond the usual limits of such assays; conditions: source organism: Variola virus
HLA-A*11:01 [15] = assay: as above; conditions: source organism: Variola virus
HLA-A*01:01 = assay: IEDB peptide-MHC binding, purified MHC/direct/fluorescence; filed as Kd, often an IC50 or EC50 that approximates it; ≥ and ≤ were set here for values at or beyond the usual limits of such assays
HLA-A*11:01 [16] = assay: as above
HLA-A*26:01 [17] = assay: as above; conditions: source organism: Escherichia coli O157:H7
HLA-A*31:01 = assay: as above
HLA-A*69:01 = assay: as above
HLA-B*08:01 = assay: as above
HLA-B*15:01 [18] = assay: as above
HLA-B*15:17 = assay: as above; conditions: source organism: Escherichia coli O157:H7
HLA-B*27:05 = assay: as above
HLA-B*40:01 = assay: as above
HLA-B*44:02 = assay: as above; conditions: source organism: Escherichia coli O157:H7
HLA-B*57:01 [19] = assay: as above
HLA-B*58:01 = assay: as above
HLA-C*12:03 = assay: as above; conditions: source organism: Homo sapiens
HLA-A*29:02 [20] = assay: as above; conditions: source organism: Mycobacterium tuberculosis variant bovis
HLA-B*18:01 [21] = assay: as above; conditions: source organism: Mycobacterium tuberculosis variant bovis
HLA-B*46:01 [22] = assay: as above; conditions: source organism: Mycobacterium tuberculosis variant bovis
HLA-B*48:01 = assay: as above; conditions: source organism: Mycobacterium tuberculosis variant bovis
HLA-C*05:01 = assay: as above
[23] = source organism: Zaire ebolavirus
[24] = source organism: Sudan ebolavirus
[25] = source organism: Dengue virus 2 Jamaica/1409/1983
[26] = source organism: Salmonella enterica subsp. enterica serovar Typhi
[27] = source organism: Escherichia coli O157:H7
[28] = source organism: Shigella flexneri
[29] = source organism: Mycobacterium tuberculosis variant bovis
[30] = source organism: human gammaherpesvirus 4
[31] = source organism: Escherichia coli O139:H28 str. E24377A

AVFTEENQW
Kd (HLA-B*57:01 [1]; source organism: Dengue virus 3 Martinique/1243/1999): 0.0495 µM

ESSPNPTVEA
Kd (HLA-B*57:01 [1]; source organism: Dengue virus 2 Peru/IQT2913/1996): 0.323 µM

FLSFASLFL
IC50 (HLA-A*02:01 [2]; [23]): 0.0489 µM | IC50 (HLA-A*24:02; [23]): 0.276 µM | IC50 (HLA-B*15:01 [3]; [23]): 8.79 µM | Kd (HLA-A*02:01 [4]): ≤ 0.001 µM | Kd (HLA-A*03:01 [5]; [23]): ≥ 20 µM | Kd (HLA-C*03:03; [23]): 0.005 µM | Kd (HLA-A*26:01 [6]; [23]): ≥ 20 µM | Kd (HLA-B*18:01 [7]; [23]): ≥ 20 µM | Kd (HLA-B*27:03; [23]): ≥ 20 µM | Kd (HLA-B*46:01 [8]; [23]): ≥ 20 µM | Kd (HLA-B*57:01 [9]; [23]): ≥ 20 µM

GLMHNQNAL
IC50 (HLA-A*02:01 [2]; [24]): 3.85 µM | IC50 (HLA-A*24:02; [24]): 36.6 µM | IC50 (HLA-B*07:02; [24]): 12.4 µM | IC50 (HLA-B*15:01 [3]; [24]): 11.5 µM

GSSPILSITI
Kd (HLA-B*57:01 [1]; [25]): 0.114 µM

HVTQHWPQL
Kd (HLA-A*02:01 [10]; [26]): ≥ 20 µM | Kd (HLA-A*02:03): ≥ 20 µM | Kd (HLA-A*02:11): ≥ 20 µM | Kd (HLA-A*02:12): 7.05 µM | Kd (HLA-A*02:19): ≥ 20 µM | Kd (HLA-A*03:01 [11]): ≥ 20 µM | Kd (HLA-A*29:02 [12]): ≥ 20 µM | Kd (HLA-B*15:01 [13]; [26]): ≥ 20 µM | Kd (HLA-B*18:01 [7]; [26]): ≥ 20 µM | Kd (HLA-B*27:03; [26]): ≥ 20 µM | Kd (HLA-B*39:01): ≥ 20 µM | Kd (HLA-B*46:01 [8]; [26]): ≥ 20 µM | Kd (HLA-B*51:01): ≥ 20 µM | Kd (HLA-B*57:01 [9]; [26]): ≥ 20 µM

IPLASLTPK
IC50 (HLA-A*03:01 [14]): 66.6 µM | IC50 (HLA-A*11:01 [15]): 6.66 µM | IC50 (HLA-A*24:02; source organism: Variola virus): 22.1 µM | IC50 (HLA-B*07:02; source organism: Variola virus): 5.73 µM

ITIPIGLYL
Kd (HLA-A*01:01; [27]): ≥ 20 µM | Kd (HLA-A*03:01 [5]; [27]): ≥ 20 µM | Kd (HLA-A*11:01 [16]; [27]): ≥ 20 µM | Kd (HLA-A*26:01 [17]): ≥ 20 µM | Kd (HLA-A*31:01; [27]): ≥ 20 µM | Kd (HLA-A*69:01; [27]): ≥ 20 µM | Kd (HLA-B*08:01; [27]): ≥ 20 µM | Kd (HLA-B*15:01 [18]; [28]): 2.97 µM | Kd (HLA-B*15:17): 0.0018 µM | Kd (HLA-B*27:05; [27]): ≥ 20 µM | Kd (HLA-B*40:01; [27]): ≥ 20 µM | Kd (HLA-B*44:02): ≥ 20 µM | Kd (HLA-B*57:01 [19]; [27]): 0.349 µM | Kd (HLA-B*58:01; [28]): 0.0101 µM | Kd (HLA-C*03:03; source organism: Escherichia coli O157:H7 str. EDL933): 0.094 µM

KAFQDVLYV
Kd (HLA-C*12:03): ≤ 0.001 µM

KTKLTDWDF
Kd (HLA-B*57:01 [1]; source organism: Dengue virus 4 Philippines/H241/1956): 0.132 µM

LGKSYAQMW
Kd (HLA-B*57:01 [1]; [25]): 0.0927 µM

NIKRTLAAM
IC50 (HLA-A*02:01 [2]; [23]): ≥ 458 µM | IC50 (HLA-B*07:02; [23]): ≥ 128 µM

PMQQLTQPL
Kd (HLA-A*01:01; [29]): ≥ 20 µM | Kd (HLA-A*03:01 [5]; [29]): ≥ 20 µM | Kd (HLA-A*11:01 [16]; [29]): ≥ 20 µM | Kd (HLA-A*29:02 [20]): ≥ 20 µM | Kd (HLA-A*31:01; [29]): ≥ 20 µM | Kd (HLA-A*69:01; [29]): ≥ 20 µM | Kd (HLA-B*08:01; [29]): ≥ 20 µM | Kd (HLA-B*15:01 [18]; [29]): ≥ 20 µM | Kd (HLA-B*18:01 [21]): ≥ 20 µM | Kd (HLA-B*27:05; [29]): ≥ 20 µM | Kd (HLA-B*40:01; [29]): ≥ 20 µM | Kd (HLA-B*46:01 [22]): ≥ 20 µM | Kd (HLA-B*48:01): ≥ 20 µM | Kd (HLA-B*57:01 [19]; [29]): ≥ 20 µM | Kd (HLA-B*58:01; [29]): ≥ 20 µM

PTAGILARW
Kd (HLA-B*57:01 [1]; source organism: Dengue virus 1 Brazil/97-11/1997): 0.0127 µM

RVGRVNPGT
IC50 (HLA-A*02:01 [2]; source organism: Variola virus): 11.4 µM | IC50 (HLA-B*07:02; source organism: Variola virus): 21.4 µM

SLDDYNHLV
Kd (HLA-C*03:03; source organism: Homo sapiens): ≥ 20 µM | Kd (HLA-C*05:01; source organism: Homo sapiens): 0.278 µM

YSQGAFTPL
Kd (HLA-C*03:03; [30]): ≤ 0.001 µM | Kd (HLA-C*05:01; [30]): 3.08 µM

YTILNRKAI
IC50 (HLA-A*02:01 [2]; [24]): ≥ 226 µM | IC50 (HLA-A*24:02; [24]): 9.02 µM | IC50 (HLA-B*07:02; [24]): 20.1 µM

YVVWLMFSL
Kd (HLA-C*03:03; [31]): 2.19 µM | Kd (HLA-A*02:01 [10]; [31]): 0.312 µM | Kd (HLA-A*26:01 [6]; [31]): ≥ 20 µM | Kd (HLA-B*15:01 [13]; [31]): ≥ 20 µM
